The source of these data is patent US20250223358A1 (ANTENGENE BIOLOGICS, published 2025).

Numbering of substitutions follows the chain as printed.

B1: ch8-B12-F9-B11 (antibody, V domains shown)
VH: EVQLVESGGGIVKPGGSRKLSCAASGFTFSDYGMHWVRQAPEKGLEWIAYISSASGKIYYADTVKGRFTISRDNAKNILFLQMTSLRSEDTAMYYCARVLRWSVNYVMDYWGQGTSVTVSS
VL: DIVMTQSPSSLAVSAGEKVTMNCESSQSVLYSSNQKNYLAWYQQKPGQSPKLLIYWASTRESGVPDRFTGTGSGTDFTLTISSVQAEDLAVYYCHQYLSSWTFGGGTKLEIK
B2: 124E3D6 (antibody, V domains shown)
VH: QVQLQQPGTELVKPGASVKLSCKASGYTFTSYWMHWVKQRPGQGLEWIGNINPSNGDTNYNEKFKSKATLTVDKSSSTAYMQLSSLTSEDSAVYYCARDRSSQYYFDYWGQGTTLTVSS
VL: DIVMSQSPSSLAVSAGEKVTMSCKSSQSLLNSRTRKNYLAWYQQKPGQSPKLLIYWASTRESGVPDRFTGSGSGTDFTLTISSVQAEDLAVYYCKQSYNLRTFGGGTKLEIK
notes: mouse monoclonal (hybridoma) antibody
B3: 147E11E2 (antibody, V domains shown)
VH: B2 VH with A16T, D57A
VL: B2 VL with T34S, K95T, N99T
notes: as for B2
B4: 126A11A4 (antibody, V domains shown)
VH: B2 VH with G42E, S75A, S77N, A97G
VL: B2 VL with Y93F, Y98F, N99I
notes: as for B2
B5: 133B4C7 (antibody, V domains shown)
VH: B2 VH with Y60F
VL: B2 VL with K24N, N99T
notes: as for B2
B6: 140D2B10 (antibody, V domains shown)
VH: B2 VH with D57E, T58S, S91Y
VL: B2 VL with N99T
notes: as for B2
B7: 127E2D3 (antibody, V domains shown)
VH: B2 VH with Q43E, N52Y, S54G, N55S, G56S, D57S, T58I
VL: B2 VL with K95T
notes: as for B2
B8: 147C6F3 (antibody, V domains shown)
VH: B2 VH with T30D, I51L, D57E, T58I, S66H, A97S
VL: B2 VL with M21L, P46S, I54M, S82T, S83N, N99I
notes: as for B2
B9: 40-C12-C10-E9 (antibody, V domains shown)
VH: EVQLQLSGPELVKPGASVKMSCKASGYTFSSYVIHWVKQKPGQGLEWIGYINPYNDVIKYNEKFKGKATLTSDKSSSTAYMELSSLTSEDSAVYYCARDSYYSYDGFAYWGQGTLVTVSA
VL: QIVLTQSPAIMSASPGEKVTMTCSASSSVSYMHWYQQKSGTSPKRWIYDTSKLASGVPARFSGSGSGTSYSLTISSMEAEDAATYYCQQWSSNPPTFGGGTKVEIK
notes: as for B2
B10: 7-D9-G10-H2 (antibody, V domains shown)
VH: EVQLQQSGPELVKPGASVKISCKASGYSFTGYFMNWVKQSHGKSLEWIGRFNPYNGDTFYNQNFKGKATLTVDKSSSTAHMELRSLTSEDSAVYYCARGDYWGQGTTLTVSS
VL: not shown
notes: as for B2
B11: 7-D8-G12-E4 (antibody, V domains shown)
VH: EVKLVESGGGLVKPGGSLKLSCAASGFTFSSYPMSWVRQTPAKRLEWVATISSGGGNTYYPDSVKGRFTISRDNARNTLYLQMSSLRSEDTAMYYCARGLYWYFDVWGAGTTVTVSS
VL: DIVLTQSPLSLPVSLGDQASISCRSSQSIAHSNGDTYLEWYLQNPGQSPKLLIYKVSNRISGVPDRFSGSGSGTDFTLKISRVEAEDLGVYYCFQGSHVPYTFGGGTKLEIK
notes: as for B2
B12: 3-C6-C11-F12 (antibody, V domains shown)
VH: EVHLVESGGGLVQPGGSRKLSCAGSGFTFSTYGMHWVRQAPEKGLEWVAYISNGGSTIYYADSVKGRFTISRDNPNDTLFLHMTSLGSEDTAMYYCARPTWGGFAYWGQGTLVTVSA
VL: B11 VL
notes: as for B2
B13: 8-B12-F9-B11 (antibody, V domains shown)
VH: B1 VH
VL: B1 VL
notes: as for B2
B14: 2-F12-A6-G2 (antibody, V domains shown)
VH: EVQLVESRPGLVAPSQSLSITCTVSGFSLTSYGVSWVRQPPGKGLEWLGVIWGDGNTNYNSDLKTSLSISKDNSKSQVFLKLDSLQTDDTATYYCAKVSYWYFDVWGTGTTVTVSS
VL: DIQLTQPPASLSASVGETVTITCRASENIYSYLAWYQQKQGKSPQLLVYNAKTLPEGVPSRFSGSGSGTQFSLKINSLQPEDFGTYYCQHHYGTPPTFGTGTKLELK
notes: as for B2
B15: 16-F2-C11-D9 (antibody, V domains shown)
VH: EVQLQQSGPELVKPGASVKMSCKASGYTFTDFNIHWVKQSLGKSLEWIGYINPNDGGSTYNQKFKGKATLTINKSSSSAYMELRSLTSEDSAVYYCAIPFLDSWGQGTSVTVSS
VL: TLMMTQSPSSMYASLGERVTITCKASQDINSYLRWYQQKPGKSPKTLIYGASSLVDGVPSRFSGRGSGQDYSLTISSLEYEDMGIYYCLQYDEVPLTFGAGTKLELK
notes: as for B2
B16: 4-F12-F1-A4 (antibody, V domains shown)
VH: EVKLVESGGGLVKPGGSLKLSCAASGFTFSSYTMSWIRQTPAKRLEWVATISSGGGNTFYADSVKGRFTISRDNARNTLNLQMSSLRSEDTAMYYCARSLYYYDGTYVRKDYYAMDYWGQGSSVTVSS
VL: DIQMTQSPASLSVSVGETVTISCRASENIFSNLAWYQQKQGKSPQLLVYAATNLAEGVPSRFSGSRSGTQFSLKINSLQSEDFGSYYCQQFWGTPWTFGGGTKLEVK
notes: as for B2
B17: 20-E11-E11-C2 (antibody, V domains shown)
VH: EVQLQQSGPEVVKPGASVKISCKASGYTFTDYYMNWVKQSHGKNLEWIGDINPIHGGISSNQKFSDKATLTVDKSSNTAYLELRSLTSEDSAIYYCARRIYYGYDWYFDVWGTGTTVTVSS
VL: DIVLSQSPAIMSASPGERVTMTCSASSSVTSRYFFWYQQKPGSSPKLWIYSTSNLASGVPVRFSGSGSGTSYSLTINNMAAEDAATYYCQQYSTSPSTFGAGTKLELK
notes: as for B2

T1 sequence (P07766 23-207, chain 1 of 3): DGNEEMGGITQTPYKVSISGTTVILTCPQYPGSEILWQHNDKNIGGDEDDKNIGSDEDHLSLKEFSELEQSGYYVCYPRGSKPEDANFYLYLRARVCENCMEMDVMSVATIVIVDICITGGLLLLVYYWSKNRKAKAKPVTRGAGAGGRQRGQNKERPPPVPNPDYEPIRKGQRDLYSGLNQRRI
T1 sequence (P04234 22-171, chain 2 of 3): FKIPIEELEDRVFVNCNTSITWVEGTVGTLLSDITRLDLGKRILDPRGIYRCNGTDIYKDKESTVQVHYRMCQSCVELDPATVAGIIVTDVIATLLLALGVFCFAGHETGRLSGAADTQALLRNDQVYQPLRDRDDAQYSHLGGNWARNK
T1 sequence (P09693 23-182, chain 3 of 3): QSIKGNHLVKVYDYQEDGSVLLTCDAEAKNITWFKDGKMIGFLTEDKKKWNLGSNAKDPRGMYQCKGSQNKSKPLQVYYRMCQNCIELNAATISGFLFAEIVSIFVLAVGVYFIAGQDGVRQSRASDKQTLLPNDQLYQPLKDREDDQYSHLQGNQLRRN

The first assay concerns the target T1, human CD3 (human, UniProt P07766 23-207; P04234 22-171; P09693 23-182).
T1 construct: whole, on cells; also called hCD3; CD3 on Jurkat cells
Description: FACS on Jurkat cells.
For B1, the EC50 (commonly the concentration that produces a half-maximal response) came out at 18 nM and the “Top FACS signal” value was determined as 2720.

The target of the next assay is T2, cynomolgus CD3 (cynomolgus (Macaca fascicularis), UniProt Q95LI5 22-198; Q95LI8 22-171; Q95LI7 23-181).
T2 construct: whole, on cells; composition of the 'mix' not defined; also called cynoCD3
T2 sequence (Q95LI5 22-198, chain 1 of 3): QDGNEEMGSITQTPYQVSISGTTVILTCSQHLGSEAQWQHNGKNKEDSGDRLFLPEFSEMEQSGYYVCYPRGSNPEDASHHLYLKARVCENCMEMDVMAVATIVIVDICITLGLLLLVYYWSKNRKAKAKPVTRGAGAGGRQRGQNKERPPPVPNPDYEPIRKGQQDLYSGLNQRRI
T2 sequence (Q95LI8 22-171, chain 2 of 3): as the sequence (P04234 22-171, chain 2 of 3) above, with I5V, N15K, I20V, S32T, D33N, I34N, T64A, S74N, V83L, H141R counted along it
T2 sequence (Q95LI7 23-181, chain 3 of 3): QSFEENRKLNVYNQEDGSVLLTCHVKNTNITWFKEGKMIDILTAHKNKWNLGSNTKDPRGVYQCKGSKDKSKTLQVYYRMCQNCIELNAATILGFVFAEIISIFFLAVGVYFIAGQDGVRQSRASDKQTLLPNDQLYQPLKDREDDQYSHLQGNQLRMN
The assay can be described thus: FACS on 293F-cynoCD3mix cells.
For B2, the “FACS MFI” value is 400 MFI.

On to B3, for which the “FACS MFI” value was 2530 MFI.

On to B4, for which the “FACS MFI” value was determined as 2220 MFI.

Take B5: the “FACS MFI” value is 1780 MFI.

As to B6, the “FACS MFI” value was determined as 2040 MFI.

Turning to B7, the “FACS MFI” value stood at 1920 MFI.

As for B8, the “FACS MFI” value was found to be 2230 MFI.

The next assay has as its target T1, human CD3. Description: FACS on Jurkat cells. This is another data set of the same source.
B2: the “FACS MFI” value came to 126 MFI.

Turning to B3, the “FACS MFI” value was 2450 MFI.

As to B4, the “FACS MFI” value worked out at 1620 MFI.

B5: the “FACS MFI” value worked out at 681 MFI.

In the case of B6, the “FACS MFI” value was 872 MFI.

Consider B7, for which the “FACS MFI” value was 930 MFI.

On to B8, for which the “FACS MFI” value was found to be 1860 MFI.

The next assay has as its target T1, human CD3. The assay can be described thus: FACS on HEK293T-hCD3mix cells.
In the case of B9, the “FACS MFI” value was found to be 13100 MFI.

Turning to B10, the “FACS MFI” value worked out at 51000 MFI.

Consider B11, for which the “FACS MFI” value turned out to be 65200 MFI.

As for B12, the “FACS MFI” value amounted to 21800 MFI.

Consider B13, for which the “FACS MFI” value was 67100 MFI.

In the case of B14, the “FACS MFI” value is 53800 MFI.

With B15, the “FACS MFI” value came to 80300 MFI.

Consider B16, for which the “FACS MFI” value was found to be 16800 MFI.

As to B17, the “FACS MFI” value was determined as 55200 MFI.

In another assay the target is T1, human CD3. Description: cell-based or functional assay.
Take B1: the “EC50 (activation of Jurkat-NFAT-Luc cells)” value came out at 11.3 nM and the “Top FACS signal (activation of Jurkat-NFAT-Luc cells)” value was 457.
